Target: the molecule itself
Assay: cryo-EM structure

B1: Photobacterium phosphoreum LuxC (acyl-CoA reductase) (enzyme)
chain: IKKIPMIIGGAERDTSEHEYRELTLNSYKVSIPIINQDDVEAIKSQSVENNLNINQIVNFLYTVGQKWKSENYSRRLTYIRDLVRFLGYSPEMAKLEANWISMILSSKSALYDIVETELGSRHIVDEWLPQGDCYVKAMPKGKSVHLLAGNVPLSGVTSIIRAILTKNECIIKTSSADPFTAIALASSFIDTDEHHPISRSMSVMYWSHNEDIAIPQQIMNCADVVVSWGGYDAIKWATEHTPVNVDILKFGPKKSIAIVDNPVDITASAIGVAHDICFYDQQACFSTQDIYYIGDNIDAFFDELVEQLNLYMDILPKGDQTFDEKASFSLIEKECQFAKYKVEKGDNQSWLLVKSPLGSFGNQPLARSAYIHHVSDISEITPYIENRITQTVTVTPWESSFKYRDVLASHGAERIVESGMNNIFRVGGAHDGMRPLQRLVKYISHERPYTYSTKDVAVKIEQTRYLEEDKFLVFVP
stoichiometry N: 4
